In article PMC6322584:

Target: VvWRKY8-mVenus (Vitis vinifera)
Experiment: FRET or BRET; FRET with acceptor photobleaching; VvMYB14-mTRQ2 (donor) and VvWRKY8-mVenus (acceptor) from one pFRETtv-2in1-NN vector in agro-infiltrated tobacco leaves, 3 d after infiltration; bleaching with the 488-nm laser at 100% intensity, 15 frames

FRET efficiency: 38.5%
Substance: VvMYB14-mTRQ2 (natural protein)
